Biological target: Rabbit polymeric immunoglobulin receptor (pIgR), intact, expressed in transfected MDCK cells (pWe) (rabbit) (UniProt P01832)
Experiment: cell-based or functional assay

UniProt P01832, sequence (P01832 19-773): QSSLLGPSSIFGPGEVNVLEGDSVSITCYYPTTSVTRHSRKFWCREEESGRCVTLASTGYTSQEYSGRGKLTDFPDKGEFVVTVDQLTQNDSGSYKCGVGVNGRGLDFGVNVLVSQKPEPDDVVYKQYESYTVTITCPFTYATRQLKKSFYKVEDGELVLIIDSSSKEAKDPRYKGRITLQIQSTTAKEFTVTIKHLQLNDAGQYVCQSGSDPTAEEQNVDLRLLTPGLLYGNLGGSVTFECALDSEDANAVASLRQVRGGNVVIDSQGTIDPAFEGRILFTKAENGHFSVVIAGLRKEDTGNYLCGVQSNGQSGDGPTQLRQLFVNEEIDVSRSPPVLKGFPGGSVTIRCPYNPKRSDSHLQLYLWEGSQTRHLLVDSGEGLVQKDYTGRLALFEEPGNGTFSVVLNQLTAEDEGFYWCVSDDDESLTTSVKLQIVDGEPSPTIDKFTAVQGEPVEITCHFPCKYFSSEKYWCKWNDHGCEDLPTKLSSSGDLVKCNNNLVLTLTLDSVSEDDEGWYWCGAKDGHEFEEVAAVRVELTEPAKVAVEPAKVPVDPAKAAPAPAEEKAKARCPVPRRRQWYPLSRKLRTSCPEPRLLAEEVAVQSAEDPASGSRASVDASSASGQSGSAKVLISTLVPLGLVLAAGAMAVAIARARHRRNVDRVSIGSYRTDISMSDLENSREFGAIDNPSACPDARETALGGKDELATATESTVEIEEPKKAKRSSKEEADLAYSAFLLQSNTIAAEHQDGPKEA

How did the percent of ligand transcytosed from the apical to the basolateral surface turn out when Radio-iodinated IgA (antibody) was run?
Its percent of ligand transcytosed from the apical to the basolateral surface is 5 to 6%.

Source: patent US6340743
